Biological target: monomeric recombinant human ASC (Apoptosis-associated speck-like protein containing a caspase recruitment … (human, UniProt Q9ULZ3 1-195))
Test: limited proteolysis-coupled mass spectrometry

monomeric recombinant human ASC (Apoptosis-associated speck-like protein containing a caspase recruitment …, sequence (Q9ULZ3 whole entry): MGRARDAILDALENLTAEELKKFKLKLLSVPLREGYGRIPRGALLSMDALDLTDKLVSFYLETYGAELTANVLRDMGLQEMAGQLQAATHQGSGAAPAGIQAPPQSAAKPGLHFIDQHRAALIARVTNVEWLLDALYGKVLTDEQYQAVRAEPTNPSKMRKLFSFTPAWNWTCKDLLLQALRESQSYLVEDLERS

B1: monomeric recombinant human SAA1 (serum amyloid A1) (natural protein, UniProt P0DJI8 19-122, looked up)
chain: RSFFSFLGEAFDGARDMWRAYSDMREANYIGSDKYFHARGNYDAAKRGPGGAWAAEVITDARENIQRFFGHGAEDSLADQAANEWGRSGKDPNHFRPAGLPEKY
Does B1 bind?
Result: binds

From article doi:10.1101/2021.05.01.442282 (bioRxiv, 2021)
